# T1: human FcγRIIb (human, UniProt P31994 43-217, limits assumed)
# T1 construct: also called FcgRIIb; hFcgRIIb
# T1 sequence: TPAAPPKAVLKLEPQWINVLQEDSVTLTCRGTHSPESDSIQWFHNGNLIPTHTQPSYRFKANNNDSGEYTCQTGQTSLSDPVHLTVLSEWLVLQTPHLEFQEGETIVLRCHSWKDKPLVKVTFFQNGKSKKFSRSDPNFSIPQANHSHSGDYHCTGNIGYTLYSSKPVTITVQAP
# T2: human FcγRIIa(H) (human, UniProt P12318 36-217)
# T2 construct: also called FcgRIIaH; hFcgRIIa(H)
# T2 sequence: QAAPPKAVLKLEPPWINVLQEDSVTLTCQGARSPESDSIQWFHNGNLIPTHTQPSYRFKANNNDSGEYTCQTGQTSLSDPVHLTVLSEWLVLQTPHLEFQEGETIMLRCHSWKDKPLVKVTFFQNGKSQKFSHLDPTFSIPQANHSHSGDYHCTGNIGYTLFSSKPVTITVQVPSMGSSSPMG
# T3: human FcγRIIa(R) (human, UniProt P12318 36-217)
# T3 construct: also called FcgRIIaR; hFcgRIIa(R)
# T3 chain: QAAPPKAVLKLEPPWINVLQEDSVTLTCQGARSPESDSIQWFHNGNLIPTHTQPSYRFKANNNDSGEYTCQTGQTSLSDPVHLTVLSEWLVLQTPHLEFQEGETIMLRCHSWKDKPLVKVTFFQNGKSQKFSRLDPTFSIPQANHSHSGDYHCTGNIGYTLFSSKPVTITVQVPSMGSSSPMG
# Experiments:
# Experiment in all cases: SPR, captured antibody;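 note: antibody captured on a sensor chip, Fcγ receptor flowed over at 25 °C, receptor binding normalized to the captured antibody amount and expressed relative to the reference antibody ×100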
# human FcγRIIb = molecular target: T1, human FcγRIIb
# Experimental: (§1) Interaction between each modified antibody and Fcγ receptor prepared in the manner described above was analyzed using the BIACORE™ T100 surface plasmon resonance system (GE Healthcare), BIACORE™ T200 surface plasmon resonance system (GE Healthcare), BIACORE™ A100 surface plasmon resonance system or BIACORE™ 4000 surface plasmon resonance system. HBS-EP+ (GE Healthcare) was used for the running buffer, and measurements were carried out at 25° C. The chips used were chips in which antigen peptides, Protein A (Thermo Scientific), Protein A/G (Thermo Scientific) or Protein L (ACTIGEN® protein (Alltech or BioVision) were immobilized on the Series S Sensor Chip CMS (GE Healthcare) or Series S Sensor Chip CM4 (GE Healthcare) by amine coupling, or chips in which preliminarily biotinylated antigen peptides were allowed to interact and then immobilized on the Series S Sensor Chip SA (certified) (GE Healthcare). The target antibodies were captured on these sensor chips, Fcγ receptor diluted with the running buffer was allowed to interact, followed by measurement of the amount of bound antibody. The amounts bound were compared between antibodies. However, since the amount of Fcγ receptor bound depends on the amount of captured antibody, the values used for comparison were first corrected by dividing the amount of Fcγ receptor bound by the captured amount of each antibody. Through reaction with 10 mM glycine-HCl at pH 1.5, the sensor chips were regenerated by washing off antibody captured on the sensor chips and used repeatedly.
# (§2) Binding strength was evaluated according to the following method based on the results of analyzing the interaction with each FcγR. […] That value was then further multiplied by 100, and the resulting value was used as an indicator of relative binding activity to each FcγR.
# human FcγRIIa(H) = molecular target: T2, human FcγRIIa(H)
# Experimental: as §1, §2
# human FcγRIa = molecular target: T4, human FcγRIa (human, UniProt P12314 16-292, limits assumed)
# T4 construct: also called FcgRIa; hFcgRIa
# T4 sequence (P12314 16-292 limits assumed): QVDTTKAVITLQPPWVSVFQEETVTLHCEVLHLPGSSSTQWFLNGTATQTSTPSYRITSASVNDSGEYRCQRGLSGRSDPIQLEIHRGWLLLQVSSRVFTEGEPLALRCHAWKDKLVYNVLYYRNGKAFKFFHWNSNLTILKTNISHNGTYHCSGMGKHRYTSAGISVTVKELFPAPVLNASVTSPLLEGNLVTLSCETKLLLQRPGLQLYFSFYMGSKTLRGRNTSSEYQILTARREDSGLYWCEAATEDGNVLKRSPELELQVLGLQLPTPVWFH
# Experimental: as §1, §2
# human FcγRIIa(R) = molecular target: T3, human FcγRIIa(R)
# Experimental: as §1, §2
Binder,relative binding activity (human FcγRIIb),relative binding activity (human FcγRIIa(H)),relative binding activity (human FcγRIa),relative binding activity (human FcγRIIa(R))
"GpH7-B3 P329S/GpL16-k0 (antibody, human IgG1, B3 variant; copies: 2 + 2) heavy: not shown light: DIVMTQSPLSLPVTPGEPASISCQASESLVHSNRNTYLHWYLQKPGQSPQLLIYKVSNRFSGVPDRFSGSGSGTDFTLKISRVEAEDVGVYYCSQNTHVPPTFGQGTKVEIE",-1 % of GpH7-B3/GpL16-k0,1 % of GpH7-B3/GpL16-k0,60 % of GpH7-B3/GpL16-k0,0 % of GpH7-B3/GpL16-k0
"GpH7-B3 Q295N/GpL16-k0 (antibody, human IgG1, B3 variant; copies: 2 + 2) heavy: not shown light: DIVMTQSPLSLPVTPGEPASISCQASESLVHSNRNTYLHWYLQKPGQSPQLLIYKVSNRFSGVPDRFSGSGSGTDFTLKISRVEAEDVGVYYCSQNTHVPPTFGQGTKVEIE",41 % of GpH7-B3/GpL16-k0,74 % of GpH7-B3/GpL16-k0,99 % of GpH7-B3/GpL16-k0,56 % of GpH7-B3/GpL16-k0
"GpH7-B3 Q295R/GpL16-k0 (antibody, human IgG1, B3 variant; copies: 2 + 2) heavy: not shown light: DIVMTQSPLSLPVTPGEPASISCQASESLVHSNRNTYLHWYLQKPGQSPQLLIYKVSNRFSGVPDRFSGSGSGTDFTLKISRVEAEDVGVYYCSQNTHVPPTFGQGTKVEIE",46 % of GpH7-B3/GpL16-k0,94 % of GpH7-B3/GpL16-k0,100 % of GpH7-B3/GpL16-k0,61 % of GpH7-B3/GpL16-k0
"GpH7-B3 P329T/GpL16-k0 (antibody, human IgG1, B3 variant; copies: 2 + 2) heavy: not shown light: DIVMTQSPLSLPVTPGEPASISCQASESLVHSNRNTYLHWYLQKPGQSPQLLIYKVSNRFSGVPDRFSGSGSGTDFTLKISRVEAEDVGVYYCSQNTHVPPTFGQGTKVEIE",-4 % of GpH7-B3/GpL16-k0,0 % of GpH7-B3/GpL16-k0,43 % of GpH7-B3/GpL16-k0,-2 % of GpH7-B3/GpL16-k0
"GpH7-B3 Q295Y/GpL16-k0 (antibody, human IgG1, B3 variant; copies: 2 + 2) heavy: not shown light: DIVMTQSPLSLPVTPGEPASISCQASESLVHSNRNTYLHWYLQKPGQSPQLLIYKVSNRFSGVPDRFSGSGSGTDFTLKISRVEAEDVGVYYCSQNTHVPPTFGQGTKVEIE",24 % of GpH7-B3/GpL16-k0,70 % of GpH7-B3/GpL16-k0,95 % of GpH7-B3/GpL16-k0,38 % of GpH7-B3/GpL16-k0
"GpH7-B3 Q295G/GpL16-k0 (antibody, human IgG1, B3 variant; copies: 2 + 2) heavy: not shown light: DIVMTQSPLSLPVTPGEPASISCQASESLVHSNRNTYLHWYLQKPGQSPQLLIYKVSNRFSGVPDRFSGSGSGTDFTLKISRVEAEDVGVYYCSQNTHVPPTFGQGTKVEIE",28 % of GpH7-B3/GpL16-k0,41 % of GpH7-B3/GpL16-k0,89 % of GpH7-B3/GpL16-k0,36 % of GpH7-B3/GpL16-k0
"GpH7-B3 P329Y/GpL16-k0 (antibody, human IgG1, B3 variant; copies: 2 + 2) heavy: not shown light: DIVMTQSPLSLPVTPGEPASISCQASESLVHSNRNTYLHWYLQKPGQSPQLLIYKVSNRFSGVPDRFSGSGSGTDFTLKISRVEAEDVGVYYCSQNTHVPPTFGQGTKVEIE",-3 % of GpH7-B3/GpL16-k0,0 % of GpH7-B3/GpL16-k0,76 % of GpH7-B3/GpL16-k0,-1 % of GpH7-B3/GpL16-k0
"GpH7-B3 P331R/GpL16-k0 (antibody, human IgG1, B3 variant; copies: 2 + 2) heavy: not shown light: DIVMTQSPLSLPVTPGEPASISCQASESLVHSNRNTYLHWYLQKPGQSPQLLIYKVSNRFSGVPDRFSGSGSGTDFTLKISRVEAEDVGVYYCSQNTHVPPTFGQGTKVEIE",55 % of GpH7-B3/GpL16-k0,59 % of GpH7-B3/GpL16-k0,95 % of GpH7-B3/GpL16-k0,64 % of GpH7-B3/GpL16-k0
"GpH7-B3 P329W/GpL16-k0 (antibody, human IgG1, B3 variant; copies: 2 + 2) heavy: not shown light: DIVMTQSPLSLPVTPGEPASISCQASESLVHSNRNTYLHWYLQKPGQSPQLLIYKVSNRFSGVPDRFSGSGSGTDFTLKISRVEAEDVGVYYCSQNTHVPPTFGQGTKVEIE",0 % of GpH7-B3/GpL16-k0,0 % of GpH7-B3/GpL16-k0,94 % of GpH7-B3/GpL16-k0,1 % of GpH7-B3/GpL16-k0
"GpH7-B3 Q295F/GpL16-k0 (antibody, human IgG1, B3 variant; copies: 2 + 2) heavy: not shown light: DIVMTQSPLSLPVTPGEPASISCQASESLVHSNRNTYLHWYLQKPGQSPQLLIYKVSNRFSGVPDRFSGSGSGTDFTLKISRVEAEDVGVYYCSQNTHVPPTFGQGTKVEIE",30 % of GpH7-B3/GpL16-k0,74 % of GpH7-B3/GpL16-k0,99 % of GpH7-B3/GpL16-k0,46 % of GpH7-B3/GpL16-k0
"GpH7-B3 Q295W/GpL16-k0 (antibody, human IgG1, B3 variant; copies: 2 + 2) heavy: not shown light: DIVMTQSPLSLPVTPGEPASISCQASESLVHSNRNTYLHWYLQKPGQSPQLLIYKVSNRFSGVPDRFSGSGSGTDFTLKISRVEAEDVGVYYCSQNTHVPPTFGQGTKVEIE",16 % of GpH7-B3/GpL16-k0,38 % of GpH7-B3/GpL16-k0,81 % of GpH7-B3/GpL16-k0,26 % of GpH7-B3/GpL16-k0
"GpH7-B3 S298P/GpL16-k0 (antibody, human IgG1, B3 variant; copies: 2 + 2) heavy: not shown light: DIVMTQSPLSLPVTPGEPASISCQASESLVHSNRNTYLHWYLQKPGQSPQLLIYKVSNRFSGVPDRFSGSGSGTDFTLKISRVEAEDVGVYYCSQNTHVPPTFGQGTKVEIE",-1 % of GpH7-B3/GpL16-k0,0 % of GpH7-B3/GpL16-k0,15 % of GpH7-B3/GpL16-k0,0 % of GpH7-B3/GpL16-k0
"GpH7-B3 P331G/GpL16-k0 (antibody, human IgG1, B3 variant; copies: 2 + 2) heavy: not shown light: DIVMTQSPLSLPVTPGEPASISCQASESLVHSNRNTYLHWYLQKPGQSPQLLIYKVSNRFSGVPDRFSGSGSGTDFTLKISRVEAEDVGVYYCSQNTHVPPTFGQGTKVEIE",8 % of GpH7-B3/GpL16-k0,9 % of GpH7-B3/GpL16-k0,88 % of GpH7-B3/GpL16-k0,13 % of GpH7-B3/GpL16-k0
"GpH7-B3 Q295H/GpL16-k0 (antibody, human IgG1, B3 variant; copies: 2 + 2) heavy: not shown light: DIVMTQSPLSLPVTPGEPASISCQASESLVHSNRNTYLHWYLQKPGQSPQLLIYKVSNRFSGVPDRFSGSGSGTDFTLKISRVEAEDVGVYYCSQNTHVPPTFGQGTKVEIE",29 % of GpH7-B3/GpL16-k0,78 % of GpH7-B3/GpL16-k0,97 % of GpH7-B3/GpL16-k0,45 % of GpH7-B3/GpL16-k0
"GpH7-B3 Q295S/GpL16-k0 (antibody, human IgG1, B3 variant; copies: 2 + 2) heavy: not shown light: DIVMTQSPLSLPVTPGEPASISCQASESLVHSNRNTYLHWYLQKPGQSPQLLIYKVSNRFSGVPDRFSGSGSGTDFTLKISRVEAEDVGVYYCSQNTHVPPTFGQGTKVEIE",40 % of GpH7-B3/GpL16-k0,67 % of GpH7-B3/GpL16-k0,100 % of GpH7-B3/GpL16-k0,52 % of GpH7-B3/GpL16-k0
"GpH7-B3 P331K/GpL16-k0 (antibody, human IgG1, B3 variant; copies: 2 + 2) heavy: not shown light: DIVMTQSPLSLPVTPGEPASISCQASESLVHSNRNTYLHWYLQKPGQSPQLLIYKVSNRFSGVPDRFSGSGSGTDFTLKISRVEAEDVGVYYCSQNTHVPPTFGQGTKVEIE",63 % of GpH7-B3/GpL16-k0,58 % of GpH7-B3/GpL16-k0,98 % of GpH7-B3/GpL16-k0,72 % of GpH7-B3/GpL16-k0
"GpH7-B3 S298G/GpL16-k0 (antibody, human IgG1, B3 variant; copies: 2 + 2) heavy: not shown light: DIVMTQSPLSLPVTPGEPASISCQASESLVHSNRNTYLHWYLQKPGQSPQLLIYKVSNRFSGVPDRFSGSGSGTDFTLKISRVEAEDVGVYYCSQNTHVPPTFGQGTKVEIE",68 % of GpH7-B3/GpL16-k0,43 % of GpH7-B3/GpL16-k0,100 % of GpH7-B3/GpL16-k0,89 % of GpH7-B3/GpL16-k0
"GpH7-B3 S298K/GpL16-k0 (antibody, human IgG1, B3 variant; copies: 2 + 2) heavy: not shown light: DIVMTQSPLSLPVTPGEPASISCQASESLVHSNRNTYLHWYLQKPGQSPQLLIYKVSNRFSGVPDRFSGSGSGTDFTLKISRVEAEDVGVYYCSQNTHVPPTFGQGTKVEIE",34 % of GpH7-B3/GpL16-k0,38 % of GpH7-B3/GpL16-k0,88 % of GpH7-B3/GpL16-k0,79 % of GpH7-B3/GpL16-k0
"GpH7-B3 P329V/GpL16-k0 (antibody, human IgG1, B3 variant; copies: 2 + 2) heavy: not shown light: DIVMTQSPLSLPVTPGEPASISCQASESLVHSNRNTYLHWYLQKPGQSPQLLIYKVSNRFSGVPDRFSGSGSGTDFTLKISRVEAEDVGVYYCSQNTHVPPTFGQGTKVEIE",13 % of GpH7-B3/GpL16-k0,28 % of GpH7-B3/GpL16-k0,95 % of GpH7-B3/GpL16-k0,24 % of GpH7-B3/GpL16-k0
"GpH7-B3 Q295D/GpL16-k0 (antibody, human IgG1, B3 variant; copies: 2 + 2) heavy: not shown light: DIVMTQSPLSLPVTPGEPASISCQASESLVHSNRNTYLHWYLQKPGQSPQLLIYKVSNRFSGVPDRFSGSGSGTDFTLKISRVEAEDVGVYYCSQNTHVPPTFGQGTKVEIE",40 % of GpH7-B3/GpL16-k0,37 % of GpH7-B3/GpL16-k0,95 % of GpH7-B3/GpL16-k0,43 % of GpH7-B3/GpL16-k0

# Reference: patent US20200199241A1 (Chugai, published 2020)
